Data as given in patent US20210032351A1 (XDCEXPLORER SHANGHAI, published 2021).
Substitutions are numbered along the chain they refer to. Values belong to the binder of their own block, whether it stands above or below them.

How the values were obtained:
[1] = target: T1, biotin-labeled recombinant EGFRvIII protein (UniProt P00533 25-645, biotin-labeled); experiment: competitive ELISA; competitor Control antibody 02
T1 construct: the construct is not described
Protocol: (§1) The purified antibodies to be tested are diluted with PBS to 1 μg/mL, coated onto a 96-well high-adsorption ELISA plate at 50 μL/well at 4° C. overnight, and then blocked with 250 μL of the blocking solution [PBS containing 0.01% (v/v) Tween20 and 1% (w/w) BSA] for one hour at room temperature, and each well is added with 0.05 μg/mL of the biotin-labeled recombinant EGFRvIII protein. Simultaneously, 5 μg/mL of the competitive antibody (i.e., the purified EGFRvIII antibody obtained in example 2) is added thereto, and incubated at 25° C.−37° C. for 1 to 2 hours. The plate is washed 3 times with the plate washing solution [PBS containing 0.01% (v/v) Tween20], and added with HRP (horseradish peroxidase) labeled streptavidin (purchased from Sigma). The plate is incubated for 0.5 hour at 37° C., and then washed 3 times with the plate washing solution [PBS containing 0.01% (v/v) Tween20]. The plate is added with 100 μL of TMB substrate/well, incubated for 30 minutes at room temperature, and then added with 100 μL of stopping solution (1.0N HCl)/well. A450 nm value is read using an ELISA plate reader (SpectraMax 384 plus, purchased from Molecular Device), and the results are shown in FIG. 6.

[2] = target: T1, biotin-labeled recombinant EGFRvIII …; experiment: competitive ELISA; competitor Murine anti-7E5
Protocol: as §1

[3] = target: T1, biotin-labeled recombinant EGFRvIII …; experiment: competitive ELISA; competitor Control antibody 01
Protocol: as §1

[4] = target: T1, biotin-labeled recombinant EGFRvIII …; experiment: competitive ELISA; competitor Murine anti-64F1
Protocol: as §1

[5] = target: T1, biotin-labeled recombinant EGFRvIII …; experiment: competitive ELISA; competitor Murine anti-63A10
Protocol: as §1

[6] = target: T2, human EGFRvIII protein on the surface of U87MG-hEGFRvIII cells (human, UniProt P00533 25-1210); experiment: FACS on U87MG-hEGFRvIII cells
T2 construct: whole, on cells; Stably transfected U87MG cells; also called mutant EGFRvIII protein; U87MG-EGFRvIII
Protocol: (§2) The cells are washed twice with the HBSS buffer and are counted, and then the cells are diluted with the HBSS buffer to 2×10⁶ cells/ml, added with 1% goat serum blocking solution, with the percentage being the mass percentage, and incubated on ice for 30 minutes, and then centrifugally washed twice with the HBSS buffer. The collected cells are suspended to 2×10⁶ cells/mL with an FACS buffer (HBSS+1% BSA, with the percentage being the mass percentage), added to a 96-well FACS reaction plate at 100 μL/well, then added with 100 μL/well of the purified EGFRvIII antibody (samples to be tested) obtained in example 2, and incubated on ice for 2 hours. The plate is centrifugally washed twice with the FACS buffer, added with 100 μL/well of a fluorescence (Alexa 488) labeled secondary antibody (purchased from Invitrogen), and then incubated on ice for 1 hour. The plate is centrifugally washed 3 times with the FACS buffer, added with 100 μL/well of a fixing solution [4% (v/v) paraformaldehyde] for suspending the cells, and centrifugally washed twice with the FACS buffer after 10 minutes. The cells are suspended in 100 μL of the FACS buffer, and the results are detected and analyzed by FACS (FACS Calibur, purchased from BD). Data analysis is performed by using the software (CellQuest) to obtain the mean fluorescence intensity (MFI) of the cells. Data is further analyzed by using the software (GraphPad Prism5) to perform data fitting and calculate EC50. […] A431 cells (human epidermal cell cancer cell lines) have a large amount of wild-type EGFR protein expressed on the surface thereof. […] U87MG cells (human glioma cell lines) have a small amount of wild-type EGFR protein expressed on the surface thereof, while HEB cells (human glioma cell lines) have a high level of wild-type EGFR protein expression on the surface thereof.

[7] = target: T1, biotin-labeled recombinant EGFRvIII …; experiment: competitive ELISA; competitor Murine anti-75G7
Protocol: as §1

[8] = target: T2, human EGFRvIII protein on the surface …; experiment: immunohistochemical staining, human glioma tissue chip
[9] = target: T3, human wild-type EGFR protein on the cell surface (human, UniProt P00533 25-1210); experiment: FACS on A431 cells; A431 cells (large amount of wild-type EGFR on the surface)
T3 construct: whole, on cells; Endogenous on A431, HEB, U87MG cells and normal human primary hepatocytes; transfected on CHOk1-EGFR cells; The cell is named under assay; also called A431; HEB
Protocol: as §2

[10] = target: T4, human EGFRvIII protein on the cell surface (human, UniProt P00533 25-1210); experiment: FACS on U87MG-hEGFRvIII cells
T4 construct: whole, on cells; the cell line is named under assay; also called hEGFRvIII; U87MG-hEGFRvIII
Protocol: as §2

[11] = target: T5, human EGFRvIII-hFc protein (human, UniProt P00533 25-645); experiment: ELISA, EGFRvIII-hFc coated
T5 construct: extracellular domain; also called immunogen A; hFc-tagged EGFRvIII protein; not shown: human IgG Fc fragment (hFc) of the pCpC vector
Protocol: The purified immunogen A (EGFRvIII-hFc) obtained in example 1 (for the preparation method, see step (I) in example 1) is diluted with PBS to a final concentration of 1.0 μg/mL, and then added to a 96-well ELISA plate at 100 μl/well. The plate is sealed with a plastic film and incubated at 4° C. overnight. The next day, the plate is washed twice with a plate washing solution [PBS+0.01% (v/v) Tween20], and added with a blocking solution [PBS+0.01% (v/v) Tween20+1% (w/w) BSA] for blocking 2 hours at room temperature. […] The plate is incubated for 2 hours at 37° C., and then washed 3 times with the plate washing solution [PBS+0.01% (v/v) Tween20]. The plate is added with an HRP (horseradish peroxidase) labeled secondary antibody (purchased from Sigma), incubated at 37° C. for 2 hours, and then washed 3 times with the plate washing solution [PBS+0.01% (v/v) Tween20]. The plate is added with 100 μl of TMB substrate/well, incubated for 30 minutes at room temperature, and then added with 100 μl of stopping solution (1.0N HCl)/well. A450 nm value is read using an ELISA plate reader (SpectraMax 384plus, purchased from Molecular Device), and the results are shown in FIG. 11 and table 19.

[12] = target: T6, wild-type human EGFR protein on the surface of cells (A431, HEB, U87MG) (human, UniProt P00533 25-1210); experiment: FACS on A431 cells
T6 construct: whole, on cells; One molecule for all three cell lines; the cell line is named under assay; also called wild-type EGFR
Protocol: as §2, with “The” for “The cells are washed twice with the HBSS buffer and are counted, and then the cells are diluted with the HBSS buffer to 2×10⁶ cells/ml, added with 1% goat serum blocking solution, with the percentage being the mass percentage, and incubated on ice for 30 minutes, and then centrifugally washed twice with the HBSS buffer. The”

B2: Chimeric antibody 64F1 (antibody, human IgG1, V domains shown)
VH: QVQLQQSGAELARPGASVKMSCKASGYTFSSYTMHWAKQRPGQGLEWIGYINPSSGYTKYNQKFKDKATLTADKSSSTAYMQLSSLTSEDSIVYYCARGGGRGFAYWGQGTLVTVSA
VL: QIVLTQSPAIMSASPGERVTMTCSASSSVSYMYWYQQKPGSSPRLLIYDTSNLASGVPVRFSGSGSGTSYSLTISRVEAEDAATYYCQQWSSYSLTFGAGTKLELK
notes: also called clone 64F1F8
EC50 [9]: 180 nM
EC50 [10]: 2.1 nM
OD450 nm at 0.0001 nM antibody [11]: 0.08 OD450
OD450 nm at 0.001 nM antibody [11]: 0.11 OD450
OD450 nm at 0.01 nM antibody [11]: 0.35 OD450
OD450 nm at 0.1 nM antibody [11]: 2.23 OD450
OD450 nm at 1 nM antibody [11]: 3.72 OD450
OD450 nm at 10 nM antibody [11]: 3.78 OD450
OD450 nm at 100 nM antibody [11]: 3.7 OD450

B5: Murine anti-75G7 (antibody, V domains shown)
VH: EVQLQQSGPELVKPGASVKIPCKASGYTFTDYNMDWVKQSHGKSLEWIGDINPNNGDTIYNQKFKGKATLTVDKSSSTAYMELRSLTSEDTAVYYCARGDYDGYYPVYYAMDYWGQGTSVTVSS
VL: ENVLTQSPAIMSASPGEKVTMTCRASSSVSSSYLHWYQQKSGASPKLWIFSTSNLAAGVPARFSGSGSGTSYSLTVSSVEAEDAATYYCQQYSGYPLTFGAGTKLELK
notes: Mouse hybridoma antibody; also called 75G7C6
competition rate [1]: -2%
competition rate [2]: 3%
competition rate [3]: -5%
competition rate [4]: -3%
competition rate [5]: 9%
EC50 [6]: 4.8 nM
competition rate [7]: 67%

Further lines, results first:

competition rate [1]: 79%
competition rate [2]: 82%
competition rate [3]: -3%
competition rate [4]: 73%
competition rate [5]: 89%
EC50 [6]: 3.1 nM
competition rate [7]: 20%
positive samples of 70 GBM samples [8]: 24 samples
B1: Murine anti-63A10 (antibody, V domains shown)
VH: B2 VH with S30I, Y32F, A37V, S54N, D73G, K74Q, I92A, A97T
VL: DILMTQSPSSMSVSLGDTVTITCHASQDINSNIGWLQQKPGKSFKALIYHGTNLEDGVPSRFSGSGSGADYSLTISSLESEDFADYYCVQYAQFPFTFGSGTKLEIK
notes: Mouse hybridoma antibody; also called 63A10A7

competition rate [1]: 69%
competition rate [2]: 80%
competition rate [3]: -5%
competition rate [4]: 72%
competition rate [5]: 81%
EC50 [6]: 2 nM
competition rate [7]: 13%
positive samples of 70 GBM samples [8]: 24 samples
B3: Murine anti-64F1 (antibody, V domains shown)
VH: B2 VH
VL: B2 VL
notes: Mouse hybridoma antibody; also called 64F1F8

competition rate [1]: 66%
competition rate [2]: 85%
competition rate [3]: -2%
competition rate [4]: 71%
competition rate [5]: 70%
EC50 [6]: 2.9 nM
binding result [12]: no binding
competition rate [7]: 23%
positive samples of 70 GBM samples [8]: 24 samples
B4: Murine anti-7E5 (antibody, V domains shown)
VH: EIQLQQSGPELVKPGASVKVSCKASGYSFTDYNMYWVKQSHGKSLEWIGYVDPSNGGTNYNQKFKGKATLTVDKSSSTAFMHLNSLTSEDSAVYYCARGFFDYWGQGTTLTVSS
VL: DIVMTQSPSSLTVTAGEKVTMSCKSSQSLLNSGNQKNYLTWYQQKPGQPPKLLIYWASNRESGVPDRFTGSGSGKDFTLTISSVQAEDLAVYYCQNDYRYPVTFGAGTKLELK
notes: Mouse hybridoma antibody; also called 7E5-2A9; murine anti-7E5-2
